The target in assay [1] is T1, human α-thrombin (human, UniProt P00734 328-622). Put plainly: cell-based or functional assay.
For assay [2], the target named is T1, human α-thrombin. Put plainly: amidolytic assay, Tos-Gly-Pro-Arg-pNA hydrolysis by human α-thrombin, 25° C. The procedure:
Kinetics of thrombin-catalyzed hydrolysis of the chromogenic substrate Tos-Gly-Pro-Arg-p-nitroanilide were followed by absorbance at 405 nm on a Spectramax plate reader thermostated at either 25° C. or 37° C. according to the method of Maragnore et al (supra). The concentrations of Tos-Gly-Pro-Arg-p-nitroanilide ranged from 2 to 400 μM. […] The KM and Vₘₐₓ values were calculated accordingly and kcat values were determined by dividing Vₘₐₓ by the enzyme (thrombin) concentration. The inhibition assays were performed in the clotting buffer with a certain fixed concentration of α-thrombin (˜0.3 nM) such that linear progress curves were achieved within at least 15 min in the absence of the inhibition. The total volume of the solution was fixed at 200 μl. Reactions were initiated by addition of the chromogenic substrate to the wells containing thrombin and a certain concentration of the peptide inhibitors premixed for less than 2 min. Alternatively, the substrate was first mixed with the peptide inhibitor and the total volume was adjusted to 120 μL using the clotting buffer. Eighty microliters of human α-thrombin in the clotting buffer (˜0.3 nM final concentration) was added to initiate the reaction. The concentration of the peptides ranged from 0.5 nM to 10 μM. Kinetics data from initial rate experiments were used to construct Lineweaver-Burke plot; i.e. the relationship of (substrate concentration)⁻¹ versus (initial velocity)⁻¹ which. were analysed by linear regression with MicroCal Origin 4.1 program (MicroCal, MD) or using the GraphPad Prism software. The Kᵢ values of the inhibitors were determined using the equation: Kᵢ=[I]/{(SL₀/SL₁)−1}, where [0098] [I] is the inhibitor concentration, [0099] SL₀ is the slope of the reaction in the absence of inhibitors, and [0100] SL₁ is the slope of the reaction in the presence of the inhibitor. Alternatively, Dixon plots of inverse velocity versus the inhibitor concentrations were generated with the Sigmaplot™ software. Every Dixon plot contained an array of data corresponding to different substrate concentrations and the Kᵢ values were determined from the intersections. Following Peptide Cleavage by HPLC

For assay [3], the target named is T1, human α-thrombin. Put plainly: amidolytic assay, Tos-Gly-Pro-Arg-pNA hydrolysis by human α-thrombin, 25° C.; recombinant peptide. The procedure:
(§1) Kinetics of thrombin-catalyzed hydrolysis of the chromogenic substrate Tos-Gly-Pro-Arg-p-nitroanilide were followed by absorbance at 405 nm on a Spectramax plate reader thermostated at either 25° C. or 37° C. according to the method of Maragnore et al (supra). The concentrations of Tos-Gly-Pro-Arg-p-nitroanilide ranged from 2 to 400 μM. […] The KM and Vₘₐₓ values were calculated accordingly and kcat values were determined by dividing Vₘₐₓ by the enzyme (thrombin) concentration. The inhibition assays were performed in the clotting buffer with a certain fixed concentration of α-thrombin (˜0.3 nM) such that linear progress curves were achieved within at least 15 min in the absence of the inhibition. The total volume of the solution was fixed at 200 μl. […] Kinetics data from initial rate experiments were used to construct Lineweaver-Burke plot; i.e. the relationship of (substrate concentration)⁻¹ versus (initial velocity)⁻¹ which. were analysed by linear regression with MicroCal Origin 4.1 program (MicroCal, MD) or using the GraphPad Prism software. The Kᵢ values of the inhibitors were determined using the equation: Kᵢ=[I]/{(SL₀/SL₁)−1}, where [0098] […] Every Dixon plot contained an array of data corresponding to different substrate concentrations and the Kᵢ values were determined from the intersections. […]

A further assay deals with bovine α-thrombin (bovine, UniProt P00735 318-625). Put plainly: cell-based or functional assay.
The target in assay [4] is T1, human α-thrombin. Nature of the assay: amidolytic assay, Tos-Gly-Pro-Arg-pNA hydrolysis by human α-thrombin, 25° C.; synthetic peptide. The protocol: as §1

In the case of FEPRPQDHNDGDFEEIPEEYLQ [FE22-D], the “IC50 (DCT), clotting assay, 37° C.” value with human α-thrombin [1] was over 125 nM. In general, Ki refers to a dissociation constant, usually derived from enzyme kinetics or from competition with a known ligand. In the case of GSAVPRPQIHNDGDFEEIPEEYLQ [GS-AV22-I], in the assay with human α-thrombin [2], the Ki came to 41 nM. In the assay with human α-thrombin [1], the “IC50 (DCT), clotting assay, 37° C.” value came out at 33 nM. As to GSIQPRPQIHNDGDFEEIPEEYLQ [GS-IQ22-I], in the assay with human α-thrombin [2], the Ki was over 400 nM. Also, the “IC50 (DCT), clotting assay, 37° C.” value with human α-thrombin [1] was 10 nM. Consider FDPRPQHHNDGDFEEIPEEYLQ [FD22-H], for which the “IC50 (DCT), clotting assay, 37° C.” value with human α-thrombin [1] worked out at 70 nM. Still for that read-out and setting: for FHPRPQSHNDGDFEEIPEEYLQ [FH22] the value was over 150 nM; for FEPRPQSHNDGDFEEIPEEYLQ [FE22], 80 nM. As for WDPRPQSRNDGDYEPIPEEYLQ [WD22-SR-YP], in the assay with human α-thrombin [1], the “IC50 (DCT), clotting assay, 37° C.” value was determined as 32 nM.

As to FDPRPQKHNDGDFEEIPEEYLQ [FD22-K], the “IC50 (DCT), clotting assay, 37° C.” value with human α-thrombin [1] was determined as 60 nM.

B1: FN22 (peptide)
peptide: FNPRPQSHNDGDFEEIPEEYLQ
notes: Tested as recombinant peptide (FN22^(a), released by CNBr from the MFH fusion) and as synthetic peptide; also called FN22^(a) (recombinant preparation)
With B1, in the assay with human α-thrombin [1], the “IC50 (DCT), clotting assay, 37° C.; recombinant peptide FN22^(a)” value came out at 150 nM. In addition, in the assay with human α-thrombin [1], the “IC50 (DCT), clotting assay, 37° C.; synthetic peptide” value is 67 nM. Moreover, the Ki in the assay with human α-thrombin [3] came out at 100 nM; with human α-thrombin [4], 80 nM. Also, the “IC50, clotting assay; recombinant peptide” value in the assay with bovine α-thrombin is 289 nM.

As for FQPRPQMHNDGDFEEIPEEYLQ [FQ22-M], in the assay with human α-thrombin [2], the inhibition constant (Ki) amounted to 64 nM. The “IC50 (DCT), clotting assay, 37° C.” value with human α-thrombin [1] worked out at 11 nM. As for LDPRPQSHNDGDFEEIPEEYLQ (Synthetic) [LD22], in the assay with human α-thrombin [2], the inhibition constant Ki amounted to 260 nM. In the assay with human α-thrombin [1], the “IC50 (DCT), clotting assay, 37° C.” value worked out at 228 nM.

B2: FD22 (peptide)
peptide: FDPRPQSHNDGDFEEIPEEYLQ
notes: Tested as recombinant peptide (FD22^(a), released by CNBr from the MFH fusion) and as synthetic peptide; also called FD22^(a) (recombinant preparation)
Take B2: in the assay with human α-thrombin [1], the “IC50 (DCT), clotting assay, 37° C.; recombinant peptide FD22^(a)” value amounted to 50 nM and the “IC50 (DCT), clotting assay, 37° C.; synthetic peptide” value came to 45 nM. The Ki with human α-thrombin [3] is 55 nM. For the same molecule, in the assay with human α-thrombin [4], the inhibition constant Ki came to 48 nM. Take WDPRPQRHNDGDFEEIPEEYLQ (Synthetic) [WD22-R]: the inhibitory constant (Ki) in the assay with human α-thrombin [2] was 17 nM. Besides, in the assay with human α-thrombin [1], the “IC50 (DCT), clotting assay, 37° C.” value was determined as 22 nM. For FDPRPQRHNDGDFEEIPEEYLQ (Synthetic) [FD22-R], the inhibition constant Ki in the assay with human α-thrombin [2] was 45 nM. In addition, the “IC50 (DCT), clotting assay, 37° C.” value with human α-thrombin [1] stood at 32 nM.

As for IQPRPQIHNDGDFEEIPEEYLQ [IQ22-I], the Ki with human α-thrombin [2] is 49 nM. The “IC50 (DCT), clotting assay, 37° C.” value in the assay with human α-thrombin [1] is 39 nM. FNPRPQIHNDGDFEEIPEEYLQ [FN22-I]: in the assay with human α-thrombin [2], the inhibition constant Ki was found to be 360 nM. Besides, the “IC50 (DCT), clotting assay, 37° C.” value with human α-thrombin [1] was determined as 45 nM.

Regarding FDPRPQDHNDGDFEEIPEEYLQ (Synthetic) [FD22-D], the Ki in the assay with human α-thrombin [2] was found to be 58 nM. Also, in the assay with human α-thrombin [1], the “IC50 (DCT), clotting assay, 37° C.” value was 53 nM. In the case of WDPRPQSRNDGDFEPIPEEYLQ [WD22-SR-P], the “IC50 (DCT), clotting assay, 37° C.” value with human α-thrombin [1] was found to be 53 nM.
